Source: the supplement of paper PMC7125110
± gives the standard error. Fewer inactive variants are shown than the library holds.

B1: glmS ribozyme (parent)
chain: AUAAAAGCGCCAGAACUACAGAAAUGUAGUUGACGAGGAGGAGGUUUAUCGAAUUUUCGGCGGAUGCCUCCAAA

Tests used:
Conditions in all cases: with glucosamine-6-phosphate
[1] = variants of: B1; test: self-cleavage kobs at 640 uM GlcN6P; higher = faster cleavage; RNA array
Summary of the method: (§1)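 A hybridised Cy3 probe tracked barcoded ribozyme variants, transcribed in situ by E. coli RNA polymerase on sequenced MiSeq chips, at 37 °C. The variants received 40 μM to 10 mM glucosamine-6-phosphate in HEPES/KCl/Mg(OAc)2 buffer. kobs came from decay fits and kcat and KM from weighted Michaelis–Menten fits.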

[2] = variants of: B1; test: self-cleavage kobs at 2500 uM GlcN6P; higher = faster cleavage; RNA array
Summary of the method: as §1

[3] = variants of: B1; test: self-cleavage kobs at 10000 uM GlcN6P; higher = faster cleavage; RNA array
Summary of the method: as §1

| Variant | self-cleavage kobs at 640 uM GlcN6P [1] | self-cleavage kobs at 2500 uM GlcN6P [2] | self-cleavage kobs at 10000 uM GlcN6P [3] |
| --- | --- | --- | --- |
| A14C A39G C70U | 0.000886 ± 0.00029 s⁻¹ |  |  |
| G13A C50U G62A | < 1e-05 s⁻¹ |  |  |
| A14G A52U C67U | 7.45e-05 ± 1.3e-05 s⁻¹ | 0.00014 ± 3.1e-05 s⁻¹ |  |
| G13U G43C A64G | < 1e-05 s⁻¹ |  |  |
| A14G C34U | < 1e-05 s⁻¹ |  | < 1e-05 s⁻¹ |
| A12C A52U C71U | 4.93e-05 ± 1.4e-05 s⁻¹ | 0.000116 ± 2.4e-05 s⁻¹ |  |
| C11A A33G G63A G66U | < 1e-05 s⁻¹ |  |  |
| G13A G37A G66C | < 1e-05 s⁻¹ |  |  |
| C11G G41U A48G A52C | < 1e-05 s⁻¹ | < 1e-05 s⁻¹ |  |
| G13C A48G U49C | < 1e-05 s⁻¹ |  |  |
| C11A G38A U47C | < 1e-05 s⁻¹ |  |  |
| A12C A33C G40U G63U C68U | < 1e-05 s⁻¹ | < 1e-05 s⁻¹ |  |
| C11U A14G A39C | 0.000206 ± 5.2e-05 s⁻¹ | 0.000528 ± 0.00014 s⁻¹ |  |
| A14G G29A G32U | 0.000272 ± 0.0001 s⁻¹ | 0.000568 ± 0.00014 s⁻¹ |  |
| A12C U47A C50A U55A C58U A64G | < 1e-05 s⁻¹ |  |  |
| G13C G43C A48U | < 1e-05 s⁻¹ | < 1e-05 s⁻¹ |  |
| C11G G37C A39G | < 1e-05 s⁻¹ | < 1e-05 s⁻¹ |  |
| A12G C34G U47C | < 1e-05 s⁻¹ |  |  |
| C11U U30G U31C | 9.28e-05 ± 2.1e-05 s⁻¹ |  |  |
| A12G G66C C68A | 6.5e-05 ± 2.5e-05 s⁻¹ |  |  |
| A14C G40U A52U | < 1e-05 s⁻¹ |  |  |
| G13U A15C C58G | 0.00154 ± 0.00048 s⁻¹ | 7.7e-05 ± 2.3e-05 s⁻¹ | 8.16e-05 ± 1.4e-05 s⁻¹ |

| Variant | self-cleavage kobs at 640 uM GlcN6P [1] | self-cleavage kobs at 2500 uM GlcN6P [2] | self-cleavage kobs at 10000 uM GlcN6P [3] |
| --- | --- | --- | --- |
| A12G A14U A42U U54A C70G | < 1e-05 s⁻¹ |  |  |
| A12C G40A U65A | 9.15e-05 ± 1.3e-05 s⁻¹ | 0.000293 ± 5.4e-05 s⁻¹ |  |
| C11G A48G C71U | < 1e-05 s⁻¹ | < 1e-05 s⁻¹ |  |
| A12C U56G G66U | 0.000122 ± 2e-05 s⁻¹ | 0.000363 ± 8e-05 s⁻¹ |  |
| A12U C68A | 7.24e-05 ± 3.4e-05 s⁻¹ | 2.89e-05 ± 1.2e-05 s⁻¹ |  |
| C10U A52U C67A C68A U69G | 8.14e-05 ± 3.2e-05 s⁻¹ |  |  |
| C10U U47C U55G | < 1e-05 s⁻¹ |  |  |
| G13U G41U A52C | < 1e-05 s⁻¹ |  |  |
| A12C U54G C68G | 4.37e-05 ± 1.2e-05 s⁻¹ | 5.51e-05 ± 1.5e-05 s⁻¹ |  |
| C11A G37C G62A | < 1e-05 s⁻¹ |  |  |
| C11U U56A C70G | 0.000217 ± 5.8e-05 s⁻¹ | 0.000145 ± 3e-05 s⁻¹ |  |
| A12G C58G C71U | 9.42e-05 ± 1.7e-05 s⁻¹ | 3.81e-05 ± 1.2e-05 s⁻¹ |  |
| C11G G29C A52G U55A C58A | < 1e-05 s⁻¹ | < 1e-05 s⁻¹ | < 1e-05 s⁻¹ |
| G13A A42C G51C C61A | < 1e-05 s⁻¹ | < 1e-05 s⁻¹ |  |
| A14C C16A C71G | 6.58e-05 ± 2.7e-05 s⁻¹ | 4.2e-05 ± 2.1e-05 s⁻¹ |  |
| A14C G40A G60U | < 1e-05 s⁻¹ | < 1e-05 s⁻¹ |  |
| A14C C58A C67A C68G | 5.61e-05 ± 2.2e-05 s⁻¹ | 4.77e-05 ± 1.6e-05 s⁻¹ |  |
| G13C U57C C58A | < 1e-05 s⁻¹ |  |  |
| A14C A15G U69A | 9.09e-05 ± 2.4e-05 s⁻¹ | 0.000115 ± 2.7e-05 s⁻¹ |  |
| A12U C67U C71G | 7.19e-05 ± 2.7e-05 s⁻¹ | 6.07e-05 ± 1.3e-05 s⁻¹ | 4.02e-05 ± 2e-05 s⁻¹ |
| C11G A42U G63U | < 1e-05 s⁻¹ |  |  |
| G13U U56C G62U | < 1e-05 s⁻¹ | < 1e-05 s⁻¹ | < 1e-05 s⁻¹ |

| Variant | self-cleavage kobs at 640 uM GlcN6P [1] | self-cleavage kobs at 2500 uM GlcN6P [2] | self-cleavage kobs at 10000 uM GlcN6P [3] |
| --- | --- | --- | --- |
| G13U G29A A33U | < 1e-05 s⁻¹ |  |  |
| G13U G63A C71U | < 1e-05 s⁻¹ | < 1e-05 s⁻¹ |  |
| A14C C58G C67U | 5.66e-05 ± 2.2e-05 s⁻¹ | 5.98e-05 ± 1.9e-05 s⁻¹ |  |
| G13U C50A A64U U65G | < 1e-05 s⁻¹ | < 1e-05 s⁻¹ |  |
| A14C U65A C70U | 0.000125 ± 3.2e-05 s⁻¹ |  |  |
| C10U C11G A14G C16A G41A G51U | < 1e-05 s⁻¹ |  |  |
| G13U G35U G37U | < 1e-05 s⁻¹ |  |  |
| C11A U31A G60A | < 1e-05 s⁻¹ |  |  |
| C11A G35A G63U A64C | < 1e-05 s⁻¹ | < 1e-05 s⁻¹ |  |
| C11A A48U C70A | 9.74e-05 ± 2.9e-05 s⁻¹ |  |  |
| A12U G32C G35C A42U | < 1e-05 s⁻¹ |  |  |
| A12G U46A | 6e-05 ± 1.9e-05 s⁻¹ | 4.25e-05 ± 1.5e-05 s⁻¹ | 0.000187 ± 4.1e-05 s⁻¹ |
| A12C U30G U45C C50A A52U | < 1e-05 s⁻¹ |  |  |
| A12C G32A A64G C71A | < 1e-05 s⁻¹ |  |  |
| A14C U56G U57A C71A | 8.95e-05 ± 2.3e-05 s⁻¹ | 5.04e-05 ± 2e-05 s⁻¹ |  |
| A12C U49A A52C | < 1e-05 s⁻¹ |  |  |
| A12U A33C G41U G62C | < 1e-05 s⁻¹ | < 1e-05 s⁻¹ |  |
| A14G A33U G44U U47C G63U | < 1e-05 s⁻¹ | < 1e-05 s⁻¹ | < 1e-05 s⁻¹ |
| A12C U54C C71U | 0.00422 ± 0.0017 s⁻¹ | 0.0234 ± 0.0081 s⁻¹ |  |
| C11A A12U A36C A48C G60U G62A | < 1e-05 s⁻¹ | < 1e-05 s⁻¹ |  |
| A12U G32A A52U U54C C61G G63U C71A | < 1e-05 s⁻¹ | < 1e-05 s⁻¹ |  |
